Legend:
AtPBS1:HA = molecular target: T1, AtPBS1:HA
T1 chain: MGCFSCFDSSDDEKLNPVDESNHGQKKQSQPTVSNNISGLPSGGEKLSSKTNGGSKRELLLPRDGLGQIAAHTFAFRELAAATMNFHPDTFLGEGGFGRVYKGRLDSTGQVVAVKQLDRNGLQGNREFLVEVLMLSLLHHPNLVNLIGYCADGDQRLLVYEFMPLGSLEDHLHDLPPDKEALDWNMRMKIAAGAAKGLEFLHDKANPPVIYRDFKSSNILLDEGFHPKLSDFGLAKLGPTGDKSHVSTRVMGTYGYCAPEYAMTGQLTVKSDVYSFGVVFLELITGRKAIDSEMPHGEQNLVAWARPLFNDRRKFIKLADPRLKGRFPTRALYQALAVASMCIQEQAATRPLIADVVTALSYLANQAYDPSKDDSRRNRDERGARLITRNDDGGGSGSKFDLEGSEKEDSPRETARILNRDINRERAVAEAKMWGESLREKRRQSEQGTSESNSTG

GmPBS1b = molecular target: T2, GmPBS1b
T2 chain: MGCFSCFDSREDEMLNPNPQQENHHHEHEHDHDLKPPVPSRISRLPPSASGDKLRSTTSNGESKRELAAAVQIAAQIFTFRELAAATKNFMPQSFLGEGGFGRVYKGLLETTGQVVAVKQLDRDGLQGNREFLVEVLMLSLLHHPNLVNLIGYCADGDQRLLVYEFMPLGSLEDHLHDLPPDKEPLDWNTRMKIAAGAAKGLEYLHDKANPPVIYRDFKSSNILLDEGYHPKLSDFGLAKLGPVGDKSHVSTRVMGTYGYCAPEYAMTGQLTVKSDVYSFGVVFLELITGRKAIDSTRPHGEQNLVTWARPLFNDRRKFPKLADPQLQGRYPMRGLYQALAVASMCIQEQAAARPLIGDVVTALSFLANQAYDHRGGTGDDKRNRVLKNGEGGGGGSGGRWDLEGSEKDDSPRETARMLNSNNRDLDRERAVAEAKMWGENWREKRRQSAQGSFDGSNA

GmPBS1c = molecular target: T3, GmPBS1c
T3 chain: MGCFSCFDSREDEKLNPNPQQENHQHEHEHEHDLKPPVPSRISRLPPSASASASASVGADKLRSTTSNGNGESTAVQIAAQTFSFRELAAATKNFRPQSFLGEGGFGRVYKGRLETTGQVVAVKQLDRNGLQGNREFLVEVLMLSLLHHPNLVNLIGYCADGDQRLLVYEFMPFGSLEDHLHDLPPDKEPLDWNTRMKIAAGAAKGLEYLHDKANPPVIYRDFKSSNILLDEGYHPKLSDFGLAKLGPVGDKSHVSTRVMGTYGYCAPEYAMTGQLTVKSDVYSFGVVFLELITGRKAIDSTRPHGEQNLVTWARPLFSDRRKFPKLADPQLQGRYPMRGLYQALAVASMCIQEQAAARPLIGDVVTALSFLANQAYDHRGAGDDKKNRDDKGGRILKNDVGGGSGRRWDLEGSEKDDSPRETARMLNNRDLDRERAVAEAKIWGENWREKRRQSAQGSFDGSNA

HvPBS1-1:HA = molecular target: T4, HvPBS1-1:HA
T4 chain: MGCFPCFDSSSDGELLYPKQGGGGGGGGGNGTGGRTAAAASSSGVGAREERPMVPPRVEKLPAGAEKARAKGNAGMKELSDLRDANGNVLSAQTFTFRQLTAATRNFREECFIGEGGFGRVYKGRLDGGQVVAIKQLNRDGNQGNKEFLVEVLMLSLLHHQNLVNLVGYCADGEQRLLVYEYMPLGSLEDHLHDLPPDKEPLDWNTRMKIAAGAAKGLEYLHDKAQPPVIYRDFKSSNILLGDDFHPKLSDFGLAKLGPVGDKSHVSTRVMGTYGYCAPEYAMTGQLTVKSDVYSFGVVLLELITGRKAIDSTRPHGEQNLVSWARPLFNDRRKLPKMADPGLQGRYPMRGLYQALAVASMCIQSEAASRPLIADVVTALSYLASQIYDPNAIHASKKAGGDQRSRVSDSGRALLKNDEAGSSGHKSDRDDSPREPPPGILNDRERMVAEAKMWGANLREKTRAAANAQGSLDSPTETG

GmPBS1a = molecular target: T5, GmPBS1a
T5 chain: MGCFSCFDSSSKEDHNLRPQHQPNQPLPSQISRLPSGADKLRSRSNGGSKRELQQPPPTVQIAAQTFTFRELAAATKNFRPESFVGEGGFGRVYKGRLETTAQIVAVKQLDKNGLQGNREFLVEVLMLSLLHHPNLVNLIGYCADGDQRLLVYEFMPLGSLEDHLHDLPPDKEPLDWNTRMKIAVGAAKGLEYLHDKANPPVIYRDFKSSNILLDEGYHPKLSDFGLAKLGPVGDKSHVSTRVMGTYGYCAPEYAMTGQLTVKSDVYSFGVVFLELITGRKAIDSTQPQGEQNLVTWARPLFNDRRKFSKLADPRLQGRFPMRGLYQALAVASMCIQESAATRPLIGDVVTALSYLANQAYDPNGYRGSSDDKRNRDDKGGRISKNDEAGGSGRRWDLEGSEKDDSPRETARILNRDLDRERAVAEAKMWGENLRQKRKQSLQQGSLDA

HvPBS1-2:HA = molecular target: T6, HvPBS1-2:HA
T6 chain: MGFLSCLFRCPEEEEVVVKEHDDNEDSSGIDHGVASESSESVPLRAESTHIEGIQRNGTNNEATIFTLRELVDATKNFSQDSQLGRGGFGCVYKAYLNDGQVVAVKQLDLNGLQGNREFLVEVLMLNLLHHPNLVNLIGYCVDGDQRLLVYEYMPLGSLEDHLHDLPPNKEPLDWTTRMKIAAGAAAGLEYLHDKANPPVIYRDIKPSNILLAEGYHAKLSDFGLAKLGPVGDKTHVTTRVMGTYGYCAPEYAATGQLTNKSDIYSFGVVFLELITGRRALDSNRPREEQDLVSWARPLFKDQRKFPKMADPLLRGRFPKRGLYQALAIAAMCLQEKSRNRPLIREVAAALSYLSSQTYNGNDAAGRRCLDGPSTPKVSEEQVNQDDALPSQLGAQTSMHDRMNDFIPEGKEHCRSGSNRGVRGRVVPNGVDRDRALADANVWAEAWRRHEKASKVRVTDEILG

B1: AvrPphB:myc (protein)
chain: MKIGTQATSLAVLHNQESHAPQAPIAVRPEPAHAIPEIPLDLAIRPRTRGIHPFLAMTLGDKGCASSSGVSLEDDSHTQVSLSDFSVASRDVNHNNICAGLSTEWLVMSSDGDAESRMDHLDYNGEGQSRGSERHQVYNDALRAALSNDDEAPFFTASTAVIEDAGFSLRREPKTVHASGGSAQLGQTVAHDVAQSGRKHLLSLRFANVQGHAIACSCEGSQFKLFDPNLGEFQSSRSAAPQLIKGLIDHYNSLNYDVACVNEFRVS
- cleavage of the substrate (immunoblot after co-expression in N. benthamiana) (AtPBS1:HA): immunoblots showing cleavage of PBS1 proteins from Arabidopsis (At), soybean (Gm) and barley (Hv) by AvrPphB
- cleavage of the substrate (GmPBS1b): AvrPphB induces cleavage of all three soybean PBS1 proteins
- cleavage of the substrate (GmPBS1c): AvrPphB induces cleavage of all three soybean PBS1 proteins
- cleavage of the substrate (Western blot after transient co-expression in N. benthamiana) (HvPBS1-1:HA): HvPBS1-1:HA and HvPBS1-2:HA are each cleaved by AvrPphB:myc
- cleavage of the substrate (GmPBS1a): AvrPphB induces cleavage of all three soybean PBS1 proteins
- cleavage of the substrate (Western blot after transient co-expression in N. benthamiana) (HvPBS1-2:HA): HvPBS1-1:HA and HvPBS1-2:HA are each cleaved by AvrPphB:myc
- cleavage of the substrate (immunoblot after transient co-expression in N. benthamiana) (NbPBS1:HA): Co-expression with AvrPphB:myc, but not the protease inactive mutant, resulted in cleavage of NbPBS1:HA within 6 hours post-transgene expression

Source: US20190256864A1 (INDIANA UNIVERSITY RESEARCH AND TECHNOLOGY, published 2019)
